Results from PMC6800434, “Assessment of glucagon receptor occupancy by Positron Emission Tomography in non-human primates” (Scientific Reports, 2019).
“And” between values parts separate entries of the source, which are not always exact repeats. Equal entries are not always repeated. Positions of bridges follow the written chain, without caps; N, C: chain ends. Non-standard residues stand in square brackets, D forms with d. Residues, ends and D or L forms follow the SMILES beside them. *: point of attachment. DO3A(CH2CH2SO2CH2CH2) = O=C(O)CN1CCN(CCS(=O)(=O)CC*)CCN(CC(=O)O)CCN(CC(=O)O)CC1; Ala(4-thiazolyl) = N[C@@H](Cc1cscn1)C(=O)O

How the values were obtained:
rat spleen sections = assay: In vitro autoradiography of spleen sections; assay type: binding, Sprague Dawley rat; details: 10 µM GCG or 1 µm DO3A-S01-GCG precursor, 60 min RT, n = 3
Experimental: (§1) Splenic binding of [^68Ga]Ga-DO3A-S01-GCG was previously observed in rat in vivo[5]. This assay was performed to elucidate if splenic binding in human and NHP in vivo would be expected.
(§2) Spleen tissue was collected post-mortem from the NHP and Sprague Dawley rat. Biopsies from donor human spleen were obtained from Uppsala Biobank (sample collection 827) and approved by local ethical review board (Drn 2016/465).
(§3) The splenic biopsies were processed to 10 µm frozen tissue sections by a cryotome. The sections were pre-incubated in phosphate-buffered saline (PBS) (pH 7.4, 1% Bovine Serum Albumin (BSA)) for 10 min at room temperature (RT). Then, the sections were incubated with 5 nM [^68Ga]Ga-DO3A-S01-GCG in […] PBS (pH 7.4, 1% BSA), either alone or in the presence of 10 µM GCG or 1 µm DO3A-S01-GCG precursor for 60 min at RT.
(§4) After incubation, the sections were washed three times, first with assay buffer (PBS pH 7.4 1% BSA) and then twice with PBS for 1 minute. Sections were carefully dried at 37 °C and then exposed against a digital phosphorimager plate, together with a 20 µl reference from the buffer calibrated against a gamma-counter to enable quantification to fmol bound radioligand/mm^3. The phosphorimager plates were scanned using a Cyclone Plus Phosphor imager (Perkin Elmer) at 600 dpi, and the resulting autoradiograms analysed by ImageJ (NIH, Bethesda). […]

NHP spleen sections = assay: In vitro autoradiography of spleen sections; assay type: binding; details: 10 µM GCG or 1 µm DO3A-S01-GCG precursor, 60 min RT, n = 3
Experimental: as §1, §2, §3, §4

human spleen sections = assay: In vitro autoradiography of spleen sections; assay type: binding; details: 10 µM GCG or 1 µm DO3A-S01-GCG precursor, 60 min RT, n = 3
Experimental: as §1, §2, §3, §4

[1] = In vivo metabolic stability in venous plasma (radio-HPLC); set-up: species or system cynomolgus monkeys; details: NHP in vivo, n = 3
Experimental: For NHP 5–7, venous blood samples were taken at 5, 30 and 60 min for assessment of in vivo metabolic stability of [^68Ga]Ga-DO3A-S01-GCG, using HPLC methods described below. The percentage of intact [^68Ga]Ga-DO3A-S01-GCG was plotted against time from administration and fitted to a mono-exponential function.
Blood samples were centrifuged at 4000 rpm for 2 minutes at 4 °C (Beckman Allegra X-22R Centrifuge, Palo Alto, USA). From the plasma, 0.5 ml was taken and an equal volume of acetonitrile was added to precipitate the proteins. The mixture was centrifuged at 13200 rpm at 4 °C for 1 min (Eppendorf 5415 R centrifuge, Eppendorf AG, Hamburg, Germany). The supernatant was filtered through a 0.2 μm nylon membrane (Corning Incorporated, Corning, NY, USA) by centrifugation at 13200 rpm at 4 °C for 1 min. 500 µl of the filtered supernatant was diluted with 1500 µl H2O; thereafter, 30 µl of 0.01 mM unlabelled DO3A-S01-GCG was added to the mixture. The sample preparation recovery was determined by measuring the radioactivity in the plasma, filters and pellet.
HPLC analysis was performed using a binary pump system (Gilson, Middleton, USA). The sample (1.8 ml) was injected using an automated solid phase extraction controller (ASPEC Gilson) connected to a dilutor (Gilson). The separation was performed on an Xbridge Prep BEH130 C18 (peptide separation technology) 250 mm × 10 mm, 5 µm with a 10 × 10 mm C18 security guard from the same supplier. The HPLC system was operated at a flow rate of 6 ml/min. The mobile phase consisted of 0.1% TFA in MilliQ: 0.1% TFA in Acetonitrile. Gradient elution mode was used for the separation (Gradient: 0–7 min: 5–70%, 7–12 min: 70%, 12–13 min: 70–5%, 13–15 min: 5%).
A second method was developed with a lesser gradient, to determine if any metabolites were co-eluting with the DO3A-S01-GCG peak. A UV detector (Gilson) was used to detect unlabelled DO3A-S01-GCG at 220 nm. […] Six fractions were collected, and the radioactivity in the fractions was measured by a well-type scintillation counter. […]

[2] = Human predicted radiation dosimetry extrapolated from NHP biodistribution (OLINDA/EXM 1.1)
Experimental: The predicted dosimetry of [^68Ga]Ga-DO3A-S01-GCG in human males was estimated based on the in vivo biodistribution in NHPs as captured by dynamic PET examinations. The baseline PET examinations in NHP 2–7 (n=6) were averaged for the dosimetry analysis. […] However, the uptake in the brain in NHP is likely negligible based on observations in rat (5) as well as a whole-body PET/CT examination performed on NHP1 90–120 minutes post [^68Ga]Ga-DO3A-S01-GCG administration.
The dosimetry calculations were performed as described previously for [^68Ga]Ga-DO3A-VS-Cys^40-Exendin4[4] and [^68Ga]Ga-DO3A-S01-GCG in rat[5].
In brief, dynamic NHP organ uptake as measured by PET and expressed as SUV was normalised to that of human organs (using tissue weights of whole-body adult reference phantoms). The decay-corrected and normalized SUVs were back-corrected to count rates to calculate the actual radiation burden in each tissue. The tissue residence times (MBq-h/MBq) were assessed by trapezoidal approximation of the un-decay corrected human SUV biodistribution data. The tissue washout from the last time point (90 minutes) until infinity was estimated by a single mono-exponential fit.
The estimation of the absorbed dose was performed by the OLINDA/EXM 1.1 software, where the calculations were based on the adult reference male or female phantoms to obtain the absorbed dose estimate in humans (ICRP60). The organ specific doses are reported as mGy/MBq (effective dose as mSv/MBq). The amount of MBq that can be safely administered annually (MBq/year) was calculated for each organ as well as the effective dose, by dividing the limiting dose (10 mSv/year for the effective dose, 150 mGy/year for all tissues except for red marrow with 50 mGy/year) by the dose (mGy/MBq or mSv/MBq).

[3] = extrapolated from NHP 2-7 baseline PET (n = 6)

Compound	Blocking of [68Ga]Ga-DO3A-S01-GCG binding in rat spleen sections by co-incubation (rat spleen sections)	Effect of co-incubation on [68Ga]Ga-DO3A-S01-GCG binding in NHP spleen sections (NHP spleen sections)	Effect of co-incubation on [68Ga]Ga-DO3A-S01-GCG binding in human spleen sections (human spleen sections)	Intact radioligand in venous plasma ([1]; 5 minutes after administration) [%]	Intact radioligand in venous plasma ([1]; 30 minutes after administration) [%]	Intact radioligand in venous plasma ([1]; 60 minutes after administration) [%]	Human predicted absorbed dose, heart wall (myocardium) [2, 3] [mGy/MBq]	Human predicted absorbed dose, kidneys [2, 3] [mGy/MBq]	Human predicted absorbed dose, liver [2, 3] [mGy/MBq]	Human predicted absorbed dose, red marrow [2, 3] [mGy/MBq]	Human predicted effective dose [2, 3] [µSv/MBq]	Annual limit of administered radioactivity, effective dose limiting ([2]; limit 10 mSv/year) [MBq]	Annual exposure limit from red marrow absorbed dose ([2]; limit 50 mGy/year) [MBq]	Annual administration allowed by critical organ kidney ([2]; limit 150 mGy/year)
glucagon	could be blocked	not affected	not affected	–	–	–	–	–	–	–	–	–	–	–
CC[C@H](C)[C@H](NC(=O)[C@H](Cc1ccccc1)NC(=O)[C@H](CCC(=O)O)NC(=O)[C@@H]1CCCCNC(=O)CC[C@H](NC(=O)[C@H](CC(=O)O)NC(=O)[C@H](CC(C)C)NC(=O)[C@H](CCC(N)=O)NC(=O)[C@H](CCCCN)NC(=O)[C@H](CO)NC(=O)[C@H](Cc2ccc(O)cc2)NC(=O)[C@H](CC(=O)O)NC(=O)[C@H](CO)NC(=O)[C@@H](NC(=O)[C@H](Cc2ccccc2)NC(=O)[C@@H](NC(=O)CNC(=O)[C@H](CCC(N)=O)NC(=O)[C@@H](CO)NC(=O)[C@@H](N)Cc2cscn2)[C@@H](C)O)[C@@H](C)O)C(=O)N[C@@H](CCC(N)=O)C(=O)N[C@@H](CCCNC(=N)N)C(=O)N[C@@H](C)C(=O)N1)C(=O)N[C@@H](CCC(=O)O)C(=O)N[C@@H](Cc1c[nH]c2ccccc12)C(=O)N[C@@H](CC(C)C)C(=O)N[C@@H](CC(C)C)C(=O)N[C@@H](C)C(=O)N[C@H](C(=O)NCC(=O)N1CCC[C@H]1C(=O)N[C@@H](CCC(=O)O)C(=O)N[C@@H](CO)C(=O)NCC(=O)N[C@@H](C)C(=O)N1CCC[C@H]1C(=O)N1CCC[C@H]1C(=O)N1CCC[C@H]1C(=O)N[C@@H](CO)C(=O)N[C@@H](CSCCS(=O)(=O)CCN1CCN(CC(=O)O)CCN(CC(=O)O)CCN(CC(=O)O)CC1)C(N)=O)[C@@H](C)O [[^68Ga]Ga-DO3A-S01-GCG, metal not drawn] (H-[Ala(4-thiazolyl)][dS]QGTFTSDYSKQLDEQRAKEFIEWLLATGPESGAPPPSC(DO3A(CH2CH2SO2CH2CH2))-NH2; lactam 16-20)	–	–	–	95.9 ± 1.2	89.0 ± 2.7	80.3 ± 3.3	0.10	0.29	0.049	0.039	20.6	485	> 1000	519 MBq and > 500 MBq
